Experimental data as given in patent US20240307370A1, “SIGMA RECEPTOR LIGANDS FOR TREATING SARS-COV-2 INFECTION” (University of Florida Research Foundation, Incorporated, priority 2021, published 2024).

How the values were obtained:
[1] = tested on: SARS-CoV-2; assay type: cell-based; conditions: 400 μg/ml, H23-hACE2, MOI 0.01, 48 hpi
[2] = tested on: SARS-CoV-2; assay type: cell-based; conditions: 400 μg/ml, 48 hours after infection, vs DMSO alone

B1: lactoferrin: host-iron sequestration protein; lactoferrin from human milk, MilliporeSigma (protein, UniProt P02788 20-710, looked up)
Lactotransferrin: GRRRSVQWCAVSQPEATKCFQWQRNMRKVRGPPVSCIKRDSPIQCIQAIAENRADAVTLDGGFIYEAGLAPYKLRPVAAEVYGTERQPRTHYYAVAVVKKGGSFQLNELQGLKSCHTGLRRTAGWNVPIGTLRPFLNWTGPPEPIEAAVARFFSASCVPGADKGQFPNLCRLCAGTGENKCAFSSQEPYFSYSGAFKCLRDGAGDVAFIRESTVFEDLSDEAERDEYELLCPDNTRKPVDKFKDCHLARVPSHAVVARSVNGKEDAIWNLLRQAQEKFGKDKSPKFQLFGSPSGQKDLLFKDSAIGFSRVPPRIDSGLYLGSGYFTAIQNLRKSEEEVAARRARVVWCAVGEQELRKCNQWSGLSEGSVTCSSASTTEDCIALVLKGEADAMSLDGGYVYTAGKCGLVPVLAENYKSQQSSDPDPNCVDRPVEGYLAVAVVRRSDTSLTWNSVKGKKSCHTAVDRTAGWNIPMGLLFNQTGSCKFDEYFSQSCAPGSDPRSNLCALCIGDEQGENKCVPNSNERYYGYTGAFRCLAENAGDVAFVKDVTVLQNTDGNNNEAWAKDLKLADFALLCLDGKRKPVTEARSCHLAMAPNHAVVSRMDKVERLKQVLLHQQAKFGRNGSDCPDKFCLFQSETKNLLFNDNTECLARLHGKTTYEKYLGPQYVAGITNLKKCSTSPLLEACEFLRK
effect on SARS-CoV-2 concentration (TCID50), words [1]: ineffective | decrease of N-protein RNA copies (qPCR) [2]: 28.0%
